Data on twelve molecules can be found in patent US20260235601, “APTAMER BASED DETECTION OF SARS-COV-2 INFECTION” (COUNCIL OF SCIENTIFIC & INDUSTRIAL RESEARCH, published 2026).

This data set addresses SARS-CoV-2 spike receptor-binding domain (RBD) (SARS-CoV-2 (Wuhan strain), UniProt P0DTC2 P0DTC2:319-541). Description: ELONA. To be noted: tags: N-terminal His tag, pET-15b, E. coli BL21 Star (DE3), about 26 kDa.

On to ATTTAAAGCGGTTCGATGCGTATGGTTTGTCCGAT (ssDNA) [AptRBD3.2], for which the activity turned out to be 4 ng/mL.

B1: AptRBD8 (ssDNA)
DNA: ATGCGGATCCCGCGCATTTAAAGGGGGCGCTCCGTATGGGTTTGTCCGATTAGCTGCGCGAAGCTTGCGC
In turn, B1 had a binding signal of 0.75 absorbance.

B2: AptRBD4 (ssDNA)
DNA: ATGCGGATCCCGCGCATTTAAAGCGTCGATGCGTATGGGTTTGTCCGATTAGCTGCGCGAAGCTTGCGC
In the case of B2, the binding result is listed as “binds”.

B3: AptRBD5 (ssDNA)
DNA: ATGCGGATCCCGCGCATTTAAAGGGAGACCTATGGGTTTGTCCGATTAGCTGCGCGAAGCTTGCGC
As to B3, the binding result is given as “binds”.
ATTTAAAGCGGTTCGATGCGTATGGTTTGTCCGATTCGGT (ssDNA) [AptRBD3.1] registered an activity of 4 ng/mL.

B4: AptRBD2 (ssDNA)
DNA: ATGCGGATCCCGCGCATATTAAAGGGGAGGCTCCCTATGGGTTTGTCCGATTAGCTGCGCGAAGCTTGCGC
With B4, the binding result is “binds”.

B5: AptRBD9 (ssDNA)
DNA: ATGCGGATCCCGCGCCCGACGTCGCATGCTCCCGGCCGCCATGGCGGCCGCGGGAATTCGATTAGCGCGAAGCTTGCGC
As to B5, the binding result is reported as “binds”.

B6: AptRBD3 (ssDNA)
DNA: ATGCGGATCCCGCGCATTTAAAGCGGTTCGATGCGTATGGGTTTGTCCGATTCGGTGCGCGAAGCTTGCGC
With B6, the binding signal turned out to be 0.75 absorbance.

B7: AptRBD6 (ssDNA)
DNA: ATGCGGATCCCGCGCATTTAAAGCGCTTCGATGCGTATGGGTTTGTCCGATTAGCTGCGCGAAGCTTGCGC
With B7, the binding signal is 0.7 absorbance.
Molecule ATTTAAAGCGCTTCGATGCGTATGGGTTTGTCCGAT (ssDNA) [AptRBD6.1] displayed an activity of 4 ng/mL.
Take ATTTAAAGGGGGCGCTCCGTATGGGTTTGTCCGATTAGCT (ssDNA) [AptRBD8.1]: the activity is 8 ng/mL.
AGCGGTTCGATGCGTATGGTTTGTCCGAT (ssDNA) [AptRBD3.3] displayed an activity of 4 ng/mL.
